Target: T1, Lex-FKBP (human, UniProt P0A7C2 1-87; P62942 2-108)
T1 construct: range 1-87;range 2-108; Translated in vitro in reticulocyte lysate; also called L87G6FKBP; p19BL87G6FKBP
Assay: gel mobility shift with in vitro translated proteins and LexCon DNA probe, rapamycin added

B1: Lex-FRAP (other, UniProt P0A7C2 1-87, looked up, not shown: small tags and cut ends)
chain: MKALTARQQEVFDLIRDHISQTGMPPTRAEIAQRLGFRSPNAAEEHLKALARKGVIEIVSGASRGIRLLQEEEEGLPLVGRVAAGEPEMWHEGLEEASRLYFGERNVKGMFEVLEPLHAMMERGPQTLKETSFNQAYGRDLMEAQEWCRKYMKSGNVKDLTQAWDLYYHVFRRISK
notes: range 1-87;range 2025-2113; Translated in vitro in reticulocyte lysate; Junction residues from the SpeI-XbaI ligation are not spelled out; also called L87FRB; p19BL87FRB
binding result: binds
